In test [1] the test system is LNM-R cells. The test can be described thus: cisplatin test, LNM-R tumor xenograft. To be noted: for day the experiment was stopped because of the large size of the tumors: control group stopped after 21. In kind it is in vivo, NMRI nu/nu mice. The procedure: (§1) FIG. 6. […] A) LNM-R or R-SI NTSR1 cells (LNM-R expressing sh-RNA for NTSR1) were injected into the left and the right flanks of the mice, respectively; Mice were treated with PBS, or 15 mg/kg NTSp27-7.4 every other day and/or with cisplatin 1 mg/kg day 1, 3, 5, 7, 15, 17, and 19. At day one, 9 and 8 mice were randomized for the size of the LNM-R tumors; reaching approximately 95 mm3 on average. Mice were treated every other day and measured every day. B) Tumor growth rate from day one generated by R-SI NTSR1 cells (right flank).
(§2) Cisplatin test, 1×10^6 LNM-R cells and 1×10^6R-SI NTSR1 were subcutaneously inoculated in NMRI nu/nu mice, LNM-R in the left flank and R-SI NTSR1 in the right flank. When tumors generated by LNM-R reached an average volume of 95 mm^3, mice were randomized in 5 groups of 8 to 10 mice. Group 1 was administered with PBS, group 2 with antibody NTSp27-7.4 (i.p. every other day, 15 mg/kg) for total of 13 times and group 3 with mouse IgG (i.p. every other day, 15 mg/kg). Group 4 was administered with PBS and cisplatin (1 mg/kg at day 1,3 5 7, 15, 17, and 19) and groups 5 with antibody NTSp27-7.4 (i.p. every other day, 15 mg/kg) and cisplatin (1 mg/kg at day 1,3 5 7, 15, 17, and 19). The volume of tumor was measured every other day.

Another test has as its system A2780 cells. The test can be described thus: A2780 ovarian cancer tumor xenograft, cisplatin response. The test is classed as in vivo, NMRI-Nude Foxn1 mice. The procedure: FIG. 8. […] 3 million A2780 cells were injected into mice. When tumors generated by A2780 reached an average volume of 200 mm^3, mice were randomized into 4 groups. Mice were treated with PBS, or 15 mg/kg NTSp27-7.4 every other day and/or with cisplatin 1 mg/kg day at 1, 3, 5, and 7 days. Results are the mean of 8 to 12 mice performed in two different independent experiments.
A2780 cells (3×10^6) cells were combined with […] and 50 μl […]® (a gelatinous protein mixture), then injected subcutaneously into the right hind leg of 4 week old female NMRI-Nude Foxn1 mice. Treatment started when tumors reached approximately 200 mm3. Tumor volume was calculated every two days by using the following equation: tumor volume (mm3)=4/3×π×(length/2)×(width/2)×(height/2). After treatment, the mice were sacrificed and tumors were fixed in formalin.

Test [2] has as its system R-SI NTSR1 cells. The test can be described thus: cisplatin test, R-SI NTSR1 tumor xenograft. The test is classed as in vivo, NMRI nu/nu mice. The procedure: as §1, §2
In test [3] the test system is LNM-R cells. Nature of the test: LNM-R lung cancer tumor xenograft. The test is classed as in vivo, NMRI nu/nu mice. To be noted: 15 mg/kg i.p. every other day. The procedure:
(§3) FIG. 4. NTSp27-7.4 inhibits experimental tumor growth generated by lung cancer cell lines. A) LNM-R or R-SI NTSR1 cells (LNM-R expressing sh-RNA for NTSR1) were injected into the left and the right flank of the mice, respectively. Here is shown an example of a mouse from each group after 15 days of treatment. B) Tumor growth generated by LNM-R cells (left flank) xenografted into nude mice and treated for 15 days with PBS, or 15 mg/kg NTSp27-7.4. At day one, 10, and 8 mice were randomized on LNM-R tumors size reaching approximately 40 mm3 for control and NTSp27-7.4 group, respectively. Mice were treated every other day and measured every day. C) Tumor growth generated by R-SI NTSR1 cells (right flank) xenografted into the same mice. D and E) Tumor growth rate from day one generated by LNM-R cells (left flank) and R-SI NTSR1 cells (right flank).
(§4) 1×10^6 LNM-R cells and 1×10^6R-SI NTSR1 were subcutaneously inoculated in NMRI nu/nu mice, LNM-R in the left flank and R-SI NTSR1 in the right flank. When tumors generated by LNM-R reached an average volume of 40 mm^3, mice were randomized in 2 groups, then administered antibody NTSpP27-7.4 (i.p. every other day, 15 mg/kg) for total 8 times. PBS was used as the vehicle control. The volume of tumor was measured daily.

The test system of test [4] is MCF-7 cell overexpressing NTS. Nature of the test: invasion test on type I collagen of MCF-7 cells overexpressing NTS (NTS-h). The test is classed as cell-based. To be noted: NTS-overexpressing clones vs MCF-7; EGF 100 ng/mL; 7 μg antibody. The procedure:
The experiment was repeated twice.
(§5) The cell culture insert (8 μm, Beckton Dickinson®) was coated with type I collagen (100 μl/well, 4×10^2 μg/ml, Sigma®) at 37° C. 24 h before the assay. 1 million MCF, NTS-h, Hep 3B, HepR1a, and HepR2b cells were seeded in the insert with 250 μl of serum free medium in presence or absence of 7 μg antibodies NTSp27-7.4. Outside the insert, 750 μl medium with 10% FCS was added in the well as chemoattractant. After 48 h of incubation, the non-invading cells and collagen are removed from the upper surface of the membrane by scrubbing with a cotton swab. Invading cells (those adhering to the bottom surface of the membrane) were fixed and stained with the Kwif diff stain kit(Thermo®) and the number of stained cells were counted with an inverted microscope at 200× magnification.

The test system of test [5] is R-SI NTSR1 cells. The test can be described thus: R-SI NTSR1 tumor xenograft (same mice, right flank). The test is classed as in vivo, NMRI nu/nu mice. To be noted: non-expressing NTSR1 tumors, 15 mg/kg. The procedure:
as §3, §4

The next test relates to MDA-MB 231 cells. The test can be described thus: MDA-MB 231 breast cancer tumor xenograft. In kind it is in vivo, NMRI nu/nu mice. Conditions: 15 mg/kg i.p. every other day. The procedure: (§6) FIG. 5. NTSp27-7.4 inhibits experimental tumor growth generated by breast cancer cell lines. Tumor growth generated by MDA-MB 231 cells (left flank) (A), and MDA Si2 cells (right flank) (B), and treated for 24 days with PBS, or 15 mg/kg […]. At day one, 7, and 6 mice were randomized for the size of MDA-MB231 tumors size; reaching approximately 50 mm3. Mice were treated and measured every other day.
(§7) 3×10^6 MDA-MB 231 cells and 3×10^6 MDA si2 were subcutaneously inoculated in 100 μl of […]® (a gelatinous protein mixture) the left flank and the right flank of the NMRI nu/nu mice, respectively. When tumors generated by MDA reached an average volume of 50 mm^3, mice were randomized in 2 groups, then administered antibody NTSpP27-7.4 (i.p. every other day, 15 mg/kg) for total 12 times. PBS was used as the vehicle control.

The test system of test [6] is Hep 3B, HepR1a, and HepR2b cells. The test can be described thus: collagen type 1 invasion assay of hepatocellular carcinoma cells. In kind it is cell-based. Conditions: Hep-R1a and Hep-R1b; 3.75 μg/ml purified antibody. The procedure: FIG. 3. […] A) Migration in a collagen 1 invasion assay of Hep 3B, HepR1a, and HepR2b cells. Results represent the mean±SEM of 3 experiments. Results are expressed as a % on invasive cells of control cells, Hep3B. […] B) Migration in a collagen type 1 invasion assay of Hep 3B, HepR1a, and HepR2b cells in a presence of 3.75 μg/ml of purified NTSp27-7.4 or mouse IgG. Results represent the mean±SEM of 3 experiments. Results are expressed as a % on invasive cells of respective control cells.
as §5

The test system of a further test is MDA si2 cells. Nature of the test: MDA Si2 tumor xenograft (same mice, right flank). The test is classed as in vivo, NMRI nu/nu mice. To be noted: MDA Si2 tumors (NTSR1-). The procedure:
as §6, §7

`N.N.[Cl][Pt][Cl]` [cisplatin, reference compound]: the “LNM-R tumor growth rate as compared to PBS treated mice” value in the test with LNM-R cells [1] (cisplatin 1 mg/kg day 1,3,5,7,15,17,19, IgG 15 mg/kg every other day) is listed as “not altered”. Moreover, the “day the experiment was stopped because of the large size of the tumors” value with LNM-R cells [1] is given as 23 days. Also, the “A2780 tumor growth rates as compared to PBS treated mice” value in the test with A2780 cells (cisplatin 1 mg/kg at 1, 3, 5, and 7 days) was “slightly but not significantly altered”. In the test with R-SI NTSR1 cells [2] (cisplatin 1 mg/kg, growth ratio to D1), the “R-SI NTSR1 tumor size” value is “decreased”.

B1: NTSp27-7.4: NTS neutralizing monoclonal antibody from hybridoma clone 7.4; VH SEQ ID NO:1, VL SEQ ID NO:5 (antibody, V domains shown)
VH: DVKLVESGGGLVKLGGSLKLSCAASGFTFSGYYMSWVRQTPEKRLELVAAINNYGDNTNYPDTVKGRFSVSRDNAKNTLYLEMNSLKSEDTALYYCARLANYANQRGAMDYWGQGTSVTVSS
VL: DIQMTHTTSSLSASLGDRVTISCRASQDIANYLNWYQQKPDGTVTLLIYYTSRLHSGVPSRFSGSGSGTDYSLTINNLDQEDIATYFCQQGYTLPPTFGGGTKLEIK
modifications: Synthetic VH sequence; Synthetic VL sequence
In the case of B1, in the test with LNM-R cells [3] (15 days, vs PBS), the “tumor size smaller as compared to controls” value was determined as 2.6 times. Further, the “tumor growth from D1” value with LNM-R cells [3] (PBS 24.68±4.05) is 8.22±1.84 fold. In the test with LNM-R cells [3] (control 3.43±0.34), the “tumor doubling time after 16 days of treatment” value came out at 5.11 ± 0.38 days. In [4], the “induction of invasiveness induced or not by EGF” value is listed as “inhibited”. The “size of the tumor and growth rate vs PBS” value in the test with R-SI NTSR1 cells [5] is reported as “not different”. The “MDA-MB231 tumor growth as compared to PBS treated animals” value with MDA-MB 231 cells (24 days) was “strong reduction”. Besides, the “tumor growth rate from D1” value in the test on MDA-MB 231 cells (PBS 4.4±0.33) worked out at 1.5±0.1 fold. In the test with MDA-MB 231 cells (control 11.63±1), the “tumor doubling time after 24 days of treatment” value amounted to 52.8 ± 17.6 days. Also, the “invasive rate of the cells expressing NTS and NTSR1” value in [6] was “reduced”. For the same molecule, in the test with LNM-R cells [1] (antibody 15 mg/kg every other day, with or without cisplatin 1 mg/kg), the LNM-R tumor size result was “smaller”. Further, the “day the experiment was stopped because of the large size of the tumors” value in the test with LNM-R cells [1] is on record as 25 days. In the test with MDA si2 cells, the “tumor sizes, growth rate and doubling time vs PBS” value is “no difference”. For the same molecule, the A2780 tumor size in the test with A2780 cells (antibody 15 mg/kg every other day, with or without cisplatin 1 mg/kg, PBS 2062±371.5, p=0.054 vs PBS, p=0.0058 vs cisplatin) is 1280±262.0 mm^3. The “R-SI NTSR1 tumor growth rate” value in the test on R-SI NTSR1 cells [2] (combined treatment of NTSp27-7.4 with cisplatin) was “do not change”.

The record behind these values is patent publication US10077303B2, “Anti-neurotensin antibodies and uses thereof” (INSERM (INSTITUT NATIONAL DE LA SANTÉ ET DE LA RECHERCHE …, priority 2014, dated 2018).
